Patent publication US20110059097A1 (UNIVERSITY HEALTH NETWORK, published 2011)

Biological target: T1, murine MFAP4 (microfibrillar-associated protein-4) on mouse DNT cells (murine, UniProt Q9D1H9 23-257)
T1 sequence: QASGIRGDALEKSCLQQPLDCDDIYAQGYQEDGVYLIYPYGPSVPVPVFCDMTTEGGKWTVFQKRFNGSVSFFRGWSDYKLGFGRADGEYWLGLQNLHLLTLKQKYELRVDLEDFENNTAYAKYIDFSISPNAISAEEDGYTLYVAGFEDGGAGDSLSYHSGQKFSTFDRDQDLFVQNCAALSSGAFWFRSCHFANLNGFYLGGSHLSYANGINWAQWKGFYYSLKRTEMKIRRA
Experiment: flow cytometry on mouse DNT cell clones (target later identified as MFAP4)

B1: G1 monoclonal antibody (antibody, V domains shown)
VH: EVKLVESGGGLVQPGRSLKLSCAASGFPFSNYGMAWVRQAPTKGLAWVATISYDGRSTYYRDSVKGRFTISRNNAKSTLYLQMDSLRSEDTATYYCVRHELPEDHWGQGVMVTVSS
VL: DIVMTQSPFSLAVSEGEMVTINCKSGQSLLSSGNQKNYLAWYQQKPGQSPKLLIYYSSTRQSGVPDRFIGSGSGTDFTLTISDVQAEDLADYYCLQHYSSPFTFGSGTKLEIK
notes: Hybridoma monoclonal antibody raised against cell surface molecules of tumor-reactive mouse DNT cells; also called G1 mAb; mAb (clone: G1)
Does B1 bind?
Result: binds
